The source of these data is patent publication US20240342214A1 (MEDIZINISCHE HOCHSCHULE HANNOVER, published 2024).

Test [1] concerns the target T1, human ENTPD3 (Ectonucleoside triphosphate diphosphohydrolase 3) expressed on cells (human, UniProt O75355 1-529).
T1 sequence: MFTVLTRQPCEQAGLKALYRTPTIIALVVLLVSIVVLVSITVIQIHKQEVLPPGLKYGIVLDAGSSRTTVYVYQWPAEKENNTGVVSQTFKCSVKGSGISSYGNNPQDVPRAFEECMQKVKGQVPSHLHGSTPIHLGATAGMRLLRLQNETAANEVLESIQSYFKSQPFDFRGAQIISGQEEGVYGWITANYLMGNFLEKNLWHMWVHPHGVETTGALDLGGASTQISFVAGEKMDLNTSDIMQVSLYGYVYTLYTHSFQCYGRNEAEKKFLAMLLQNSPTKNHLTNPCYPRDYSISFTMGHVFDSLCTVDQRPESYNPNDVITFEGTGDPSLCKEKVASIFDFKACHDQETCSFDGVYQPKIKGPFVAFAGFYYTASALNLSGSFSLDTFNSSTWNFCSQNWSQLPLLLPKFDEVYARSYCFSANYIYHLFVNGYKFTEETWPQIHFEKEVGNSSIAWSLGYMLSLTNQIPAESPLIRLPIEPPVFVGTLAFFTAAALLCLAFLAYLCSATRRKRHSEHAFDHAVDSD
In words: cell-based or functional assay.

Test [2] has as its target T1, human ENTPD3 (Ectonucleoside …). Description: cell-based or functional assay. This is another data set of the same source.
Test [3] has the same target. Description: flow cytometry; soluble scFv on transfected HEK293T cells; anti-His PE. Here is the method: (§1) scFv binders initially obtained by phage display cell panning were screened first for recognition of ENTPD3 expressed on cells. Therefore, soluble scFv were produced in E. coli and used to stain HEK293T cells transiently transfected with a vector expressing the recombinant protein and eGFP downstream separated by a P2A site. Secondary staining was performed by PE staining the His-Tag of soluble scFv. Cells were measured in flow cytometry for GFP (antigen expression) and PE (scFv binding).
In general terms: In flow cytometry, cells or beads pass a laser one at a time.

The target of test [4] is T2, murine ENTPD3 expressed on HEK293T cells (mouse, UniProt Q8BFW6 1-529).
T2 construct: Transiently transfected HEK293T cells (vector with eGFP behind a P2A site); also called mENTPD3; mouse ENTPD3
T2 sequence: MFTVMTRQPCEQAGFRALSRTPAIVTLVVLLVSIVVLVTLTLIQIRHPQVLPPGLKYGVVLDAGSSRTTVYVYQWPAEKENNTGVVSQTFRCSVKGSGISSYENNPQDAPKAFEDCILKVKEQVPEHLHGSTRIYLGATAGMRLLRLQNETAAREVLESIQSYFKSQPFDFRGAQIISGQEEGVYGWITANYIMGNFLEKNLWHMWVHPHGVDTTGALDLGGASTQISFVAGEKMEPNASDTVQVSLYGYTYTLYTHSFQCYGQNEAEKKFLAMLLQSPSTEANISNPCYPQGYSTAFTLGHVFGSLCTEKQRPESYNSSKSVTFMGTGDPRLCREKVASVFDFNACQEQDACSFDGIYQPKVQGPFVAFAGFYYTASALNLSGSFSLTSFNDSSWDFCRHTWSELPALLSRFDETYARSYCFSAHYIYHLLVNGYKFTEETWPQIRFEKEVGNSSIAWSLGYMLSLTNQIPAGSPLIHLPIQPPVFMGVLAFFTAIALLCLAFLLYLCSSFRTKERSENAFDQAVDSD
The test is described as above. Here is the method:
as §1

B1: CAR 2-CD8 (antigen binding domain from binder B2, CD8 hinge) (other)
chain: QVQLVQSGGGVVQPGRSLRLSCAASGFTFSSYAMSWVRQAPGKGLEWVSAISGSGGNTNYADSVKGRFTISRDNSKNTLYLQMNSLRAEDTAVYYCAKGGSTSSGYRFDYWGQGTLVTVSSGGGGSGGGGSGGGGSQLVLTQSPSASASLGASVKLTCTLSSGHSNYAIAWHQQQPEKGPRFLMNVNRDGSYTKGDGIPDRFSGSSSGAERYLTISSLQSDDEADYYCQTWGTGVQVFGGGTKLTVLTRFVPVFLPAKPTTTPAPRPPTPAPTIASQPLSLRPEACRPAAGGAVHTRGLDFACDIYIWAPLAGTCGVLLLSLVITLYCNHRPPALEWVRSKRSRLLHSDYMNMTPRRPGPTRKHYQPYAPPRDFAAYRSASCTRVKFSRSADAPAYQQGQNQLYNELNLGRREEYDVLDKRRGRDPEMGGKPRRKNPQEGLYNELQKDKMAEAYSEIGMKGERRRGKGHDGLYQGLSTATKDTYDALHMQALPPR
In the case of B1, in test [1], the “Fold Change in IFN-γ secretion (hIsMT/T cell co-culture 48 hrs)” value is 269 fold, relative to the mock CD8 T cells condition and the “Fold Change in IFN-γ secretion (hIsMT/T cell co-culture 72 hrs)” value was 294 fold, relative to the mock CD8 T cells condition. For the same molecule, in test [2], the “Fold Change in TNF-α secretion (hIsMT/T cell co-culture 48 hrs)” value is 521 fold, relative to the mock CD8 T cells condition and the “Fold Change in TNF-α secretion (hIsMT/T cell co-culture 72 hrs)” value was 568 fold, relative to the mock CD8 T cells condition.

B2: hg012-C6 scFv (scFv)
scFv: EVQLVQSGGGLVQPGRSLRLSCTASGFTFGDYAMSWVRQAPGKGLEWVGFIRSKAYGGTTEYAASVKGRFTISRDDSKSIAYLQMNSLKTEDTAVYYCTRVPVVAGWYNWFDPWGQGTLVTVSSGSASAPKLEEGEFSEARVQSVLTQPPSASGTPGQRVTISCSGSSSNIGSNYVYWYQQLPGTAPKLLIYRNNQRPSGVPDRFSGSKSGNTASLTVSGLQAGDEADYYCSSYAGSNNVVFGGGTKLAVLGQPKAAPSVTLFPPSSAAAGSEQKLISEEDLSHHHHHH
notes: Soluble scFv made in E. coli, with Myc tag and His tag
With B2, the binding result is recorded as “binds” in test [3] and “no binding” in test [4].

B3: hg012-B7 scFv (scFv)
scFv: QVQLQQSGAEVKKPGASVKVSCKASGYTFTSYAMHWVRQAPGQRLEWMGWINAGNGNTKYSQKLQGRVTITRDTSASTAYMELSSLRSEDTAVYYCARDSGYDLFDYWGQGTLVTVSSGSASAPKLEEGEFSEARVQAVVTQEPSFSVSPGGTVTLTCGLTSGSVSTTYYPSWYQQTPGQTPRTLIYKTNLRSPGVPDRFSGSILGNKAALTITGAQADDDSDYYCLLYMGSGVWVFGGGTRLTVLGQPKAAPSVTLFPPSSAAAGSEQKLISEEDLSHHHHHH
notes: as for B2
For B3, the binding result in test [3] is listed as “binds”; in test [4], “no binding”.

B4: hg012-F10 scFv (scFv)
scFv: QMQLVQSGGGVVQPGRSLRLSCAASGFTFSSYGMHWVRQAPGKGLERVAVISYDGSNKYYADSVKGRFTISRDNSKNTLYLQMNSLRAEDTALYYCAKDHHPYGSSDSFDYWGQGTLVTVSSGSASAPKLEEGEFSEARVQAVVTQEPSLTVSPGGTVTLTCGSSTGAVTRGHYPYWLQQKPGQAPRTLIYDTVKKHSWTPARFSGSLVGGKAALTLSGAQPEDEADYYCLLSFIDTRYPARYVFGTGTKVTVLGQPKANPTVTLFPPSSAAAGSEQKLISEEDLSHHHHHH
notes: as for B2
As for B4, the binding result in test [4] was “no binding”.

B5: hg012-C8 scFv (scFv)
scFv: QVTLKESGGGLVQPGRSLRLSCAASGFTFDDYAMHWVRQAPGKGLEWVSGISWNSGSIGYADSVKGRFTISRDNAKNSLYLQMNSLRAEDTALYYCAKGANYDILTGYRKDNWFDPWGQGTLVTVSSGSASAPKLEEGEFSEARVDIVMTQTPSTLSASVGDRVTITCRASQTISNWLAWYQQKPGKAPKLLIYKASTLESGVPSRFSGTGSGTEFTLTISSLQPDDFATYFCQQYHSYSRTFGQGTKVDVARTVAAPSVAAAGSEQKLISEEDLSHHHHHH
notes: as for B2
Take B5: the binding result in test [3] is listed as “binds”; in test [4], “no binding”.

B6: hg012-E4 scFv (scFv)
scFv: QVTLKESGGGLVQPGRSLRLSCAASGFTFDDYAMHWVRQAPGKGLEWVSGISWNSGSIGYADSVKGRFTISRDNAKNSLYLQMNSLRAEDTALYYCAKGANYDILTGYRKDNWFDPWGQGTLVTVSSGSASAPKLEEGEFSEARVDIVMTQSPATLSLSPGERATLSCRASQSVGSSLAWFQQKPGQAPRLLIYDASNRATGIPARFSGSGSGTDFTLTISSLEPEDFAVYYCQQRSNWPPYTFGQGTKLEIKRTVAAPSVAAAGSEQKLISEEDLSHHHHHH
notes: as for B2
As for B6, the results for the binding result in test [3] and in test [4] were “binds” and “no binding”, respectively.

B7: hg012-D3 scFv (scFv)
scFv: QVQLVQSGGGLVQPGRSLRLSCAASGFTFDDYAMHWVRQAPGKGLEWVSGISWNSGSIGYADSVKGRFTISRDNAKNSLYLQMNSLRAEDTALYYCAKGANYDILTGYEYWGQGTLVTVSSGSASAPKLEEGEFSEARVQAVVTQEPSLTVSPGETVTLTCGSSTGAVTSDHHPYWFQQKPGQVPRTLMHDTSTRYSWTPARFSGSIVGGKAALTLSGAQPEDEAEYHCFLYYSGTAIFGGGTKLTVLSQPKAAPSVTLFPPSSAAAGSEQKLISEEDLSHHHHHH
notes: as for B2
Consider B7, for which the binding result in test [3] is on record as “binds”; in test [4] it was “no binding”.

B8: hg012-A8 scFv (scFv)
scFv: QVTLKESGGGLVQPGRSLRLSCAASGFTFDDYAMHWVRQAPGKGLEWVSGISWNSGSIGYADSVKGRFTISRDNAKNSLYLQMNSLRAEDTALYYCAKGANYDILTGYRKDNWFDPWGQGTLVTVSSGSASAPKLEEGEFSEARVLPVLTQPPSASGTPGQKVTISCSGSSSNIGSNYVFWYEQLPGAAPKLLMYSSNQRPSGVPDRFSGSKSGTSASLAISGLRSEDEADYYCAAWDDSLSGWVFGGGTKLTVLGQPKAAPSVTLFPPSSAAAGSEQKLISEEDLSHHHHHH
notes: as for B2
B8: the binding result in test [4] was “no binding”.

B9: hg012-C1 scFv (scFv)
scFv: QVQLVQSGAEVKKPGESLKISCKGSGYSFTSYWIGWVRQMPGKGLEWMGIIYPGDSGTRYSPSFQGQVTISADKSISTAYLQWSSLKASNTAMYYCARQQGAGAFDIWGQGTMVTVSSGSASAPKLEEGEFSEARVQSALTQPPSASGSPGQSVTISCTGTSRDVGGYNYVSWYQQHPGKAPKLILYEVTKRPSGVPDRFSGSKSGNTASLTISGLQAEDEADYYCSSYTSSSTVVFGGGTKLTVLGQPKAAPSVTLFPPSSAAAGSEQKLISEEDLSHHHHHH
notes: as for B2
In the case of B9, the binding result in test [3] is listed as “binds”; in test [4], “no binding”.
